We go through one molecule from patent publication US20150074844A1 (PURDUE RESEARCH FOUNDATION, published 2015).

In the test the target is T1, HAI2 fused to the GAL4-activating domain (AD) (Arabidopsis, UniProt Q9LNW3 1-442).
T1 construct: Yeast two-hybrid construct
T1 sequence (looked up): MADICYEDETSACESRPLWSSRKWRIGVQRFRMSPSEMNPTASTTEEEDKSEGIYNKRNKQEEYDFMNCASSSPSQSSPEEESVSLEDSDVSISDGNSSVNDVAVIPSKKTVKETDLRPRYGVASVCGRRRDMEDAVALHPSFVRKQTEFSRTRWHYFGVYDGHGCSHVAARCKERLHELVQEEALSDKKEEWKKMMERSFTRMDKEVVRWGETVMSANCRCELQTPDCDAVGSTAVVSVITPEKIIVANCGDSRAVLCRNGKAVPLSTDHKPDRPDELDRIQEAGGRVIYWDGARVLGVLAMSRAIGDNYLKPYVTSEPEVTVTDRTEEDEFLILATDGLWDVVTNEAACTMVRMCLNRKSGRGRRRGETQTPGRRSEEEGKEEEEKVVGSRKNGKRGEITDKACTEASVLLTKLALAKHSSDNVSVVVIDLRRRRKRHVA
Put plainly: yeast two-hybrid, growth on media lacking His and His/Ade, with and without ABA (ABA-independent). As to the method:
To investigate how PYL13 may function in plants, the interaction between PYL13 and clade A PP2Cs in yeast two-hybrid assays was examined, as shown in FIG. 3. […] PYL13 binds strongly with ABI1, ABI2, PP2CA, and HAI2 but weakly with HAB1 and HAI1 (FIG. 3A). […] PYL13 fused to the GAL4-DNA-binding domain (BD) was used as […]. Interaction was determined by growth assay on media lacking His and His/Ade in the presence and absence of ABA. Dilutions (10⁻¹, 10⁻², and 10⁻³) of saturated cultures were spotted onto the plates, which were photographed after 5 days.

B1: PYL13 fused to the GAL4-DNA-binding domain (BD) (other, not shown: small tags and cut ends)
chain: MESSKQKRCRSSVVETIEAPLPLVWSILRSFDKPQAYQRFVKSCTMRSGGGGGKGGEGKGSVRDVTLVSGFPADFSTERLEELDDESHVMVVSIIGGNHRLVNYKSKTKVVASPEDMAKKTVVVESYVVDVPEGTSEEDTIFFVDNIIRYNLTSLAKLTKKMMK
notes: also called BD-PYL13
As for B1, the binding result is recorded as “binds”.
